Where a chain is given by its changes, count along the chain named.
B1: hu23.H2L2 (antibody, V domains shown)
VH: QVQLVQSGAEVKKPGASVKVSCKASGYNLKDTFLHWVRQAPGQGLEWMGRIDPANGNIKYDPKFQGRVTITADTSASTAYMELSSLRSEDTAVYYCANSPYYYGSGYRIFDVWGQGTTVTVSS
VL: EIVLTQSPATLSLSPGERATLSCSAFSSVNYMHWYQQKPGQAPRLLIYTTSNLASGIPARFSGSGSGTDYTLTISSLEPEDFAVYYCQQRSTYPFTFGQGTKLEIK
notes: humanized c23
B2: hu23.H7L6 (antibody, V domains shown)
VH: B1 VH with Q1E, V20L, R38K, M48I, R67K, V68A, I70L, S77N, M81L, S84I
VL: B1 VL with E1Q, L13A, R44K, I57V, A59T, D69S, L77M
notes: humanized c23
B3: hu23.H6L6 (antibody, V domains shown)
VH: B1 VH with Q1E, V20L, M48I, V68A, S77N, S84I
VL: B1 VL with E1Q, L13A, R44K, I57V, A59T, D69S, L77M
notes: humanized c23
B4: hu23.H7L5 (antibody, V domains shown)
VH: B1 VH with Q1E, V20L, R38K, M48I, R67K, V68A, I70L, S77N, M81L, S84I
VL: B1 VL with E1Q, A59T, D69S
notes: humanized c23
B5: hu23.H7L7 (antibody, V domains shown)
VH: B1 VH with Q1E, V20L, R38K, M48I, R67K, V68A, I70L, S77N, M81L, S84I
VL: B1 VL with E1Q, L13A, A19V, L21I, S22T, R44K, I57V, A59T, D69S, L77M
notes: humanized c23
B6: hu23.H6L7 (antibody, V domains shown)
VH: B1 VH with Q1E, V20L, M48I, V68A, S77N, S84I
VL: B1 VL with E1Q, L13A, A19V, L21I, S22T, R44K, I57V, A59T, D69S, L77M
notes: humanized c23
B7: hu23.H1L1 (antibody, V domains shown)
VH: B1 VH with G44R, A72R, N98R
VL: B1 VL with Y70F
notes: humanized c23
B8: hu23.H1L2 (antibody, V domains shown)
VH: B1 VH with G44R, A72R, N98R
VL: B1 VL
notes: humanized c23
B9: hu23.H4L1 (antibody, V domains shown)
VH: B1 VH with V20L, R38K, M48I, V68A, I70L, M81L
VL: B1 VL with Y70F
notes: humanized c23
B10: hu23.H3L4 (antibody, V domains shown)
VH: B1 VH with V20L, M48I, V68A
VL: B1 VL with L13A, A19V, L21I, L77M
notes: humanized c23
B11: hu23.H3L2 (antibody, V domains shown)
VH: B1 VH with V20L, M48I, V68A
VL: B1 VL
notes: humanized c23
B12: hu23.H5L6 (antibody, V domains shown)
VH: B1 VH with S77N, S84I
VL: B1 VL with E1Q, L13A, R44K, I57V, A59T, D69S, L77M
notes: humanized c23
B13: hu23.H4L3 (antibody, V domains shown)
VH: B1 VH with V20L, R38K, M48I, V68A, I70L, M81L
VL: B1 VL with L13A, L77M
notes: humanized c23
B14: hu23.H6L5 (antibody, V domains shown)
VH: B1 VH with Q1E, V20L, M48I, V68A, S77N, S84I
VL: B1 VL with E1Q, A59T, D69S
notes: humanized c23
B15: hu23.H2L3 (antibody, V domains shown)
VH: B1 VH
VL: B1 VL with L13A, L77M
notes: humanized c23
B16: hu23.H2L4 (antibody, V domains shown)
VH: B1 VH
VL: B1 VL with L13A, A19V, L21I, L77M
notes: humanized c23
B17: hu23.H3L3 (antibody, V domains shown)
VH: B1 VH with V20L, M48I, V68A
VL: B1 VL with L13A, L77M
notes: humanized c23
B18: hu23.H4L2 (antibody, V domains shown)
VH: B1 VH with V20L, R38K, M48I, V68A, I70L, M81L
VL: B1 VL
notes: humanized c23
B19: hu23.H1L4 (antibody, V domains shown)
VH: B1 VH with G44R, A72R, N98R
VL: B1 VL with L13A, A19V, L21I, L77M
notes: humanized c23
B20: hu23.H5L7 (antibody, V domains shown)
VH: B1 VH with S77N, S84I
VL: B1 VL with E1Q, L13A, A19V, L21I, S22T, R44K, I57V, A59T, D69S, L77M
notes: humanized c23
B21: hu23.H1L3 (antibody, V domains shown)
VH: B1 VH with G44R, A72R, N98R
VL: B1 VL with L13A, L77M
notes: humanized c23
B22: hu23.H5L1 (antibody, V domains shown)
VH: B1 VH with S77N, S84I
VL: B1 VL with Y70F
notes: humanized c23
B23: hu23.H6L1 (antibody, V domains shown)
VH: B1 VH with Q1E, V20L, M48I, V68A, S77N, S84I
VL: B1 VL with Y70F
notes: humanized c23
B24: hu23.H2L1 (antibody, V domains shown)
VH: B1 VH
VL: B1 VL with Y70F
notes: humanized c23
B25: hu23.H4L4 (antibody, V domains shown)
VH: B1 VH with V20L, R38K, M48I, V68A, I70L, M81L
VL: B1 VL with L13A, A19V, L21I, L77M
notes: humanized c23
B26: hu23.H7L1 (antibody, V domains shown)
VH: B1 VH with Q1E, V20L, R38K, M48I, R67K, V68A, I70L, S77N, M81L, S84I
VL: B1 VL with Y70F
notes: humanized c23
B27: hu14.H1L2 (antibody, V domains shown)
VH: EVQLVESGGGLVKPGGSLRLSCAASGFTFSKYWMNWVRQAPGKGLEWVGEIRLKSNKYGTHYAESVKGRFTISRDDSKNTLYLQMNSLKTEDTAVYYCTTQLDLYWFFDVWGQGTTVTVSS
VL: EIVLTQSPATLSLSPGERATLSCRASQSISDYLHWYQQKPGQSPRLLIYYASQSISGIPARFSGSGSGTDFTLTISSLEPEDFAVYFCQNGHSLPLTFGGGTKLEIK
notes: humanized c14

The binders below were run against T1, human CD39 (full length, on cells) (human, UniProt P49961 1-510) (assay: FACS, MOLP-8 cells).
T1 construct: Recombinant on CHOK1-hCD39 cells or natural on SK-MEL-28, SK-MEL-5 and MOLP-8 cells; the cell line is named under assay; also called hCD39; ENTPD1
T1 sequence: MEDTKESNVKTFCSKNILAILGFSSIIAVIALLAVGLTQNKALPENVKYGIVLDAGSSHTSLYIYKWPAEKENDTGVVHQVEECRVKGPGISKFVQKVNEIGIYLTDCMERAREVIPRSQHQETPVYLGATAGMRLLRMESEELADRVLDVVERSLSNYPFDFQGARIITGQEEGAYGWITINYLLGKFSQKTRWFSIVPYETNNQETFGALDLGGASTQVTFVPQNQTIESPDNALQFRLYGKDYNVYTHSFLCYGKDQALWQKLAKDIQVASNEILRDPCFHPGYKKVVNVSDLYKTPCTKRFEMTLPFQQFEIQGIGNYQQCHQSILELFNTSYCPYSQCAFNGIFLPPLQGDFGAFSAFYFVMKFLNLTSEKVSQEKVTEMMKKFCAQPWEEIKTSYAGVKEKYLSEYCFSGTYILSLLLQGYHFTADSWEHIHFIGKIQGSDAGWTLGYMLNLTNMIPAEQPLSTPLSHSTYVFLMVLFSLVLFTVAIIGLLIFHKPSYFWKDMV
Protocol: Similarly, human CD39 expressing cells SK-MEL-5, SK-MEL-28 or MOLP-8, were incubated with a gradient concentration of anti-CD39 antibodies for 30 minutes at 4° C. Cells were washed 3 times using FACS buffer and next incubated with fluorescence labelled secondary antibody (goat-anti-mouse IgG or goat anti-human IgG) for 30 minutes at 4° C. Cells were washed 3 times and then re-suspended in FACS buffer and analyzed by flow cytometry analysis on BD Celesta. Data plotted and analyzed using GraphPad Prism 8.02.
The binding affinity of the humanized antibodies for c23 was determined by FACS, using similar methods as described in Example 3.2. The c23 humanized antibody clones showing good binding affinity are listed in below Table 19 and Table 20, and also shown in FIGS. 7A, 7B and FIG. 8. EC₅₀ is the concentration of the indicated antibodies to reach 50% of the signal in this assay.

**Q.** Which EC50 does the source give for B1 here?
**A.** The EC50 was 0.979 nM.

**Q.** B2 was tested. Which EC50 did it give?
**A.** Its EC50 is 0.271 nM.

**Q.** B3 was tested. Which EC50 did it give?
**A.** The EC50 was 0.237 nM.

**Q.** Which EC50 does the source give for B4 here?
**A.** Its EC50 is 0.25 nM.

**Q.** For B5, which EC50 is on record?
**A.** The EC50 was 0.25 nM.

**Q.** Which EC50 does the source give for B6 here?
**A.** The EC50 was 0.122 nM.

**Q.** Which EC50 does the source give for B7 here?
**A.** Its EC50 is roughly 77.1 nM.

**Q.** B8 was tested. Which EC50 did it give?
**A.** The EC50 was 1.16 nM.

**Q.** Does B9 bind?
**A.** Result: no binding

**Q.** How did the EC50 turn out when B10 was run?
**A.** The EC50 was 1.61 nM.

**Q.** B11 was tested. Which EC50 did it give?
**A.** The EC50 was 1.34 nM.

**Q.** Which EC50 does the source give for B12 here?
**A.** Its EC50 is 0.202 nM.

**Q.** With B13 as the binder, how does the EC50 read?
**A.** Its EC50 is 1.87 nM.

**Q.** How did the EC50 turn out when B14 was run?
**A.** The EC50 was 0.593 nM.

**Q.** B15 was tested. Which EC50 did it give?
**A.** The EC50 was 2.03 nM.

**Q.** With B16 as the binder, how does the EC50 read?
**A.** The EC50 was 1.46 nM.

**Q.** For B17, which EC50 is on record?
**A.** The EC50 was 3.29 nM.

**Q.** Which EC50 does the source give for B18 here?
**A.** Its EC50 is 1.15 nM.

**Q.** With B19 as the binder, how does the EC50 read?
**A.** Its EC50 is 1.5 nM.

**Q.** Which EC50 does the source give for B20 here?
**A.** Its EC50 is 0.179 nM.

**Q.** Which EC50 does the source give for B21 here?
**A.** Its EC50 is 2.77 nM.

**Q.** B22 was tested. Which EC50 did it give?
**A.** Its EC50 is 0.262 nM.

**Q.** How did the EC50 turn out when B23 was run?
**A.** The EC50 was 0.246 nM.

**Q.** For B24, which EC50 is on record?
**A.** Its EC50 is 65.9 nM.

**Q.** B25 was tested. Which EC50 did it give?
**A.** Its EC50 is 1.01 nM.

**Q.** With B26 as the binder, how does the EC50 read?
**A.** Its EC50 is 0.366 nM.

What follows are binders tested against T2, human CD39 (protein; form not stated) (human, UniProt P49961 38-478, limits assumed) (assay: Octet (BLI), antibody on sensor, CD39 in solution).
T2 construct: also called ENTPD1; ENTPDase 1
T2 sequence: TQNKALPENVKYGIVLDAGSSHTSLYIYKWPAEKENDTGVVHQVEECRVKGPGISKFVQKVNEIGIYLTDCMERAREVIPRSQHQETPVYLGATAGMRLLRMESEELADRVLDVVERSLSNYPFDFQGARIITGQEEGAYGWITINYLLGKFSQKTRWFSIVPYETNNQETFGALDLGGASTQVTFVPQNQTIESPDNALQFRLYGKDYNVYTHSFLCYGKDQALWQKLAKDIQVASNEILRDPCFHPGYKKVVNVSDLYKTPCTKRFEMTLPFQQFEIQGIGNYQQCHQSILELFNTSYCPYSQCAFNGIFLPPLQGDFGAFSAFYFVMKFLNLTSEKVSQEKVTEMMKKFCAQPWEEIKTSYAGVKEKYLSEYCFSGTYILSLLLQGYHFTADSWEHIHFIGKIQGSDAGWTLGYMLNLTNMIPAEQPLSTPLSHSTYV
Protocol: Briefly, the antibodies were coupled on sensors and then the sensors were dipped into CD39 gradients (start at 200 nM, with 2-fold dilution and totally 8 doses). Their binding responses were measured in real-time and results were fit globally.

**Q.** Which Kd does the source give for B27 here?
**A.** The Kd was 0.839 nM.

**Q.** What about the koff of the same binder?
**A.** Its koff is 0.000326 s⁻¹.

**Q.** And the kon?
**A.** Its kon is 389000 M⁻¹ s⁻¹.

These binders were tested against T1, human CD39 (full length, on cells) (assay: cell-based or functional assay).

**Q.** For B1, which “ATPase inhibition IC50 on SK-MEL-28 cells” value (from here on “ATPase inhibition IC50”) is on record?
**A.** The value was 0.767 nM.

**Q.** With B2 as the binder, how does the “ATPase inhibition IC50” value read?
**A.** The value was 0.121 nM.

**Q.** With B4 as the binder, how does the “ATPase inhibition IC50” value read?
**A.** The value was 0.144 nM.

**Q.** How did the “ATPase inhibition IC50” value turn out when B8 was run?
**A.** The value was 0.964 nM.

**Q.** With B12 as the binder, how does the “ATPase inhibition IC50” value read?
**A.** The value was 0.13 nM.

**Q.** For B19, which “ATPase inhibition IC50” value is on record?
**A.** Its value is 0.59 nM.

**Q.** Which “ATPase inhibition IC50” value does the source give for B25 here?
**A.** The value was 0.487 nM.

**Q.** How did the “ATPase inhibition IC50” value turn out when B26 was run?
**A.** Its value is 0.147 nM.

Reference: patent US20210388105A1 (ELPISCIENCE SUZHOU BIOPHARMA, published 2021)
